T1: FcγRIIa(R) extracellular domain, His-tagged (human, UniProt P12318 34-217)
T1 construct: extracellular domain; also called 2aR
T1 sequence: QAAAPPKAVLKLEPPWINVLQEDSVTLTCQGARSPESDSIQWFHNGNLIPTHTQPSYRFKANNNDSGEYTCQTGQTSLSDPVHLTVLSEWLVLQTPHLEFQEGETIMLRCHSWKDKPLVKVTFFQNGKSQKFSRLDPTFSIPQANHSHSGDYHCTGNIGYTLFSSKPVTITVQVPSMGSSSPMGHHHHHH

T2: FcγRIIa(H) extracellular domain, His-tagged (human, UniProt P12318 34-217)
T2 construct: extracellular domain; also called 2aH
T2 sequence: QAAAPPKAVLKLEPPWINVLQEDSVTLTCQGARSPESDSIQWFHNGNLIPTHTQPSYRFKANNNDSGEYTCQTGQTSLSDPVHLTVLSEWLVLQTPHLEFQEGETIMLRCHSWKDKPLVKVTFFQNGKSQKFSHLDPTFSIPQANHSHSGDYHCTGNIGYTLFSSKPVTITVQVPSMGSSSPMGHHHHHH

T3: FcγRIIb extracellular domain, His-tagged (human, UniProt P31994 43-217)
T3 construct: extracellular domain; also called 2b
T3 sequence: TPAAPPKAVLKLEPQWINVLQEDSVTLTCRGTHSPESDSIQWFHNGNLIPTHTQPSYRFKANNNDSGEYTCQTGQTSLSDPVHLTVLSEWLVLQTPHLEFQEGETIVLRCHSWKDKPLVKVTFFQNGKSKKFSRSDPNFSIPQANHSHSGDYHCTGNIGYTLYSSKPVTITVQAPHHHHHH


Assays:
Experiment in all cases: SPR, vs GpH7-A5/GpH7-B3/GpL16-k0 =100
[1] = target: T1, FcγRIIa(R) extracellular domain, …
[2] = target: T4, FcγRIIIa extracellular domain, His-tagged (human, UniProt P08637 17-208)
T4 construct: extracellular domain; also called 3a

[3] = target: T5, FcγRIa extracellular domain, His-tagged (human, UniProt P12314 16-292)
T5 construct: extracellular domain; also called 1a

[4] = target: T2, FcγRIIa(H) extracellular domain, …
[5] = target: T3, FcγRIIb extracellular domain, His-tagged

T5 sequence (P12314 other isoform, or with tags, fused parts or gaps): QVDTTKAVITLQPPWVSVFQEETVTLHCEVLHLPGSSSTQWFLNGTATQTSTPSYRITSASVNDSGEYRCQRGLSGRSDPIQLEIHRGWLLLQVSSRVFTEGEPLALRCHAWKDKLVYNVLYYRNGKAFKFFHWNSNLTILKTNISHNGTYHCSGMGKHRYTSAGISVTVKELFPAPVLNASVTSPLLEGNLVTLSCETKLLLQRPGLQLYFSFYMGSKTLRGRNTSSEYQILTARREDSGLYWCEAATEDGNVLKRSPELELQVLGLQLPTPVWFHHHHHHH
T4 sequence (P08637 other isoform, or with tags, fused parts or gaps): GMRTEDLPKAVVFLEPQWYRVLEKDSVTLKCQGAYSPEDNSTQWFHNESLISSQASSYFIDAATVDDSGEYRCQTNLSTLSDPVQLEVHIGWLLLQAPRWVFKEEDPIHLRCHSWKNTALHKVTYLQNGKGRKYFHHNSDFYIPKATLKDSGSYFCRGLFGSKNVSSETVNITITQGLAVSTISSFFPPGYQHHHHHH

Row | Binder | He/Con 2aR [1] | He/Con 3a [2] | He/Con 1a [3] | He/Con 2aH [4] | He/Con 2b [5]
1 | GpH7-A5/GpH7-B3 variant L235_14T/GpL16-k0 (antibody, human IgG1, kappa) heavy 1: not shown heavy 2: not shown light: DIVMTQSPLSLPVTPGEPASISCQASESLVHSNRNTYLHWYLQKPGQSPQLLIYKVSNRFSGVPDRFSGSGSGTDFTLKISRVEAEDVGVYYCSQNTHVPPTFGQGTKVEIERTVAAPSVFIFPPSDEQLKSGTASVVCLLNNFYPREAKVQWKVDNALQSGNSQESVTEQDSKDSTYSLSSTLTLSKADYEKHKVYACEVTHQGLSSPVTKSFNRGEC | 70.6 % of control | 73.2 % of control | 91.6 % of control | 79.5 % of control | 53.4 % of control
2 | GpH7-A5/GpH7-B3 variant L235_16H/GpL16-k0 (antibody, human IgG1, kappa) heavy 1: not shown heavy 2: not shown light: DIVMTQSPLSLPVTPGEPASISCQASESLVHSNRNTYLHWYLQKPGQSPQLLIYKVSNRFSGVPDRFSGSGSGTDFTLKISRVEAEDVGVYYCSQNTHVPPTFGQGTKVEIERTVAAPSVFIFPPSDEQLKSGTASVVCLLNNFYPREAKVQWKVDNALQSGNSQESVTEQDSKDSTYSLSSTLTLSKADYEKHKVYACEVTHQGLSSPVTKSFNRGEC | 110 % of control | 57.1 % of control | 92.7 % of control | 99.8 % of control | 87.8 % of control
3 | GpH7-A5/GpH7-B3 variant P238_08L/GpL16-k0 (antibody, human IgG1, kappa) heavy 1: not shown heavy 2: not shown light: DIVMTQSPLSLPVTPGEPASISCQASESLVHSNRNTYLHWYLQKPGQSPQLLIYKVSNRFSGVPDRFSGSGSGTDFTLKISRVEAEDVGVYYCSQNTHVPPTFGQGTKVEIERTVAAPSVFIFPPSDEQLKSGTASVVCLLNNFYPREAKVQWKVDNALQSGNSQESVTEQDSKDSTYSLSSTLTLSKADYEKHKVYACEVTHQGLSSPVTKSFNRGEC | 132 % of control | 71.3 % of control | 104 % of control | 81.8 % of control | 207 % of control
4 | GpH7-A5/GpH7-B3 variant L235_18N/GpL16-k0 (antibody, human IgG1, kappa) heavy 1: not shown heavy 2: not shown light: DIVMTQSPLSLPVTPGEPASISCQASESLVHSNRNTYLHWYLQKPGQSPQLLIYKVSNRFSGVPDRFSGSGSGTDFTLKISRVEAEDVGVYYCSQNTHVPPTFGQGTKVEIERTVAAPSVFIFPPSDEQLKSGTASVVCLLNNFYPREAKVQWKVDNALQSGNSQESVTEQDSKDSTYSLSSTLTLSKADYEKHKVYACEVTHQGLSSPVTKSFNRGEC | 77.3 % of control | 65 % of control | 95.2 % of control | 73.5 % of control | 62.7 % of control
5 | GpH7-A5/GpH7-B3 variant P238_15Y/GpL16-k0 (antibody, human IgG1, kappa) heavy 1: not shown heavy 2: not shown light: DIVMTQSPLSLPVTPGEPASISCQASESLVHSNRNTYLHWYLQKPGQSPQLLIYKVSNRFSGVPDRFSGSGSGTDFTLKISRVEAEDVGVYYCSQNTHVPPTFGQGTKVEIERTVAAPSVFIFPPSDEQLKSGTASVVCLLNNFYPREAKVQWKVDNALQSGNSQESVTEQDSKDSTYSLSSTLTLSKADYEKHKVYACEVTHQGLSSPVTKSFNRGEC | 147 % of control | 61 % of control | 104 % of control | 57.8 % of control | 221 % of control
6 | GpH7-A5/GpH7-B3 variant P271_02A/GpL16-k0 (antibody, human IgG1, kappa) heavy 1: not shown heavy 2: not shown light: DIVMTQSPLSLPVTPGEPASISCQASESLVHSNRNTYLHWYLQKPGQSPQLLIYKVSNRFSGVPDRFSGSGSGTDFTLKISRVEAEDVGVYYCSQNTHVPPTFGQGTKVEIERTVAAPSVFIFPPSDEQLKSGTASVVCLLNNFYPREAKVQWKVDNALQSGNSQESVTEQDSKDSTYSLSSTLTLSKADYEKHKVYACEVTHQGLSSPVTKSFNRGEC | 93.9 % of control | 83.7 % of control | 102 % of control | 88.4 % of control | 98.7 % of control
7 | GpH7-A5/GpH7-B3 variant P271_04F/GpL16-k0 (antibody, human IgG1, kappa) heavy 1: not shown heavy 2: not shown light: DIVMTQSPLSLPVTPGEPASISCQASESLVHSNRNTYLHWYLQKPGQSPQLLIYKVSNRFSGVPDRFSGSGSGTDFTLKISRVEAEDVGVYYCSQNTHVPPTFGQGTKVEIERTVAAPSVFIFPPSDEQLKSGTASVVCLLNNFYPREAKVQWKVDNALQSGNSQESVTEQDSKDSTYSLSSTLTLSKADYEKHKVYACEVTHQGLSSPVTKSFNRGEC | 75.2 % of control | 65.6 % of control | 100 % of control | 77.1 % of control | 66.7 % of control
8 | GpH7-A5/GpH7-B3 variant P271_03V/GpL16-k0 (antibody, human IgG1, kappa) heavy 1: not shown heavy 2: not shown light: DIVMTQSPLSLPVTPGEPASISCQASESLVHSNRNTYLHWYLQKPGQSPQLLIYKVSNRFSGVPDRFSGSGSGTDFTLKISRVEAEDVGVYYCSQNTHVPPTFGQGTKVEIERTVAAPSVFIFPPSDEQLKSGTASVVCLLNNFYPREAKVQWKVDNALQSGNSQESVTEQDSKDSTYSLSSTLTLSKADYEKHKVYACEVTHQGLSSPVTKSFNRGEC | 85.8 % of control | 73.5 % of control | 101 % of control | 85.4 % of control | 83.8 % of control
9 | GpH7-A5/GpH7-B3 variant P238_19Q/GpL16-k0 (antibody, human IgG1, kappa) heavy 1: not shown heavy 2: not shown light: DIVMTQSPLSLPVTPGEPASISCQASESLVHSNRNTYLHWYLQKPGQSPQLLIYKVSNRFSGVPDRFSGSGSGTDFTLKISRVEAEDVGVYYCSQNTHVPPTFGQGTKVEIERTVAAPSVFIFPPSDEQLKSGTASVVCLLNNFYPREAKVQWKVDNALQSGNSQESVTEQDSKDSTYSLSSTLTLSKADYEKHKVYACEVTHQGLSSPVTKSFNRGEC | 97.8 % of control | 52.7 % of control | 101 % of control | 54.5 % of control | 112 % of control
10 | GpH7-A5/GpH7-B3 variant L235_15Y/GpL16-k0 (antibody, human IgG1, kappa) heavy 1: not shown heavy 2: not shown light: DIVMTQSPLSLPVTPGEPASISCQASESLVHSNRNTYLHWYLQKPGQSPQLLIYKVSNRFSGVPDRFSGSGSGTDFTLKISRVEAEDVGVYYCSQNTHVPPTFGQGTKVEIERTVAAPSVFIFPPSDEQLKSGTASVVCLLNNFYPREAKVQWKVDNALQSGNSQESVTEQDSKDSTYSLSSTLTLSKADYEKHKVYACEVTHQGLSSPVTKSFNRGEC | 150 % of control | 77.8 % of control | 100 % of control | 135 % of control | 170 % of control
11 | GpH7-A5/GpH7-B3 variant P271_01G/GpL16-k0 (antibody, human IgG1, kappa) heavy 1: not shown heavy 2: not shown light: DIVMTQSPLSLPVTPGEPASISCQASESLVHSNRNTYLHWYLQKPGQSPQLLIYKVSNRFSGVPDRFSGSGSGTDFTLKISRVEAEDVGVYYCSQNTHVPPTFGQGTKVEIERTVAAPSVFIFPPSDEQLKSGTASVVCLLNNFYPREAKVQWKVDNALQSGNSQESVTEQDSKDSTYSLSSTLTLSKADYEKHKVYACEVTHQGLSSPVTKSFNRGEC | 143 % of control | 119 % of control | 103 % of control | 123 % of control | 217 % of control
12 | GpH7-A5/GpH7-B3 variant L235_20W/GpL16-k0 (antibody, human IgG1, kappa) heavy 1: not shown heavy 2: not shown light: DIVMTQSPLSLPVTPGEPASISCQASESLVHSNRNTYLHWYLQKPGQSPQLLIYKVSNRFSGVPDRFSGSGSGTDFTLKISRVEAEDVGVYYCSQNTHVPPTFGQGTKVEIERTVAAPSVFIFPPSDEQLKSGTASVVCLLNNFYPREAKVQWKVDNALQSGNSQESVTEQDSKDSTYSLSSTLTLSKADYEKHKVYACEVTHQGLSSPVTKSFNRGEC | 152 % of control | 73.8 % of control | 95.9 % of control | 131 % of control | 168 % of control
13 | GpH7-A5/GpH7-B3 variant P271_06M/GpL16-k0 (antibody, human IgG1, kappa) heavy 1: not shown heavy 2: not shown light: DIVMTQSPLSLPVTPGEPASISCQASESLVHSNRNTYLHWYLQKPGQSPQLLIYKVSNRFSGVPDRFSGSGSGTDFTLKISRVEAEDVGVYYCSQNTHVPPTFGQGTKVEIERTVAAPSVFIFPPSDEQLKSGTASVVCLLNNFYPREAKVQWKVDNALQSGNSQESVTEQDSKDSTYSLSSTLTLSKADYEKHKVYACEVTHQGLSSPVTKSFNRGEC | 87.3 % of control | 74 % of control | 101 % of control | 87.7 % of control | 87 % of control
14 | GpH7-A5/GpH7-B3 variant P238_10E/GpL16-k0 (antibody, human IgG1, kappa) heavy 1: not shown heavy 2: not shown light: DIVMTQSPLSLPVTPGEPASISCQASESLVHSNRNTYLHWYLQKPGQSPQLLIYKVSNRFSGVPDRFSGSGSGTDFTLKISRVEAEDVGVYYCSQNTHVPPTFGQGTKVEIERTVAAPSVFIFPPSDEQLKSGTASVVCLLNNFYPREAKVQWKVDNALQSGNSQESVTEQDSKDSTYSLSSTLTLSKADYEKHKVYACEVTHQGLSSPVTKSFNRGEC | 142 % of control | 98.9 % of control | 105 % of control | 74.6 % of control | 235 % of control
15 | GpH7-A5/GpH7-B3 variant P238_09D/GpL16-k0 (antibody, human IgG1, kappa) heavy 1: not shown heavy 2: not shown light: DIVMTQSPLSLPVTPGEPASISCQASESLVHSNRNTYLHWYLQKPGQSPQLLIYKVSNRFSGVPDRFSGSGSGTDFTLKISRVEAEDVGVYYCSQNTHVPPTFGQGTKVEIERTVAAPSVFIFPPSDEQLKSGTASVVCLLNNFYPREAKVQWKVDNALQSGNSQESVTEQDSKDSTYSLSSTLTLSKADYEKHKVYACEVTHQGLSSPVTKSFNRGEC | 140 % of control | 100 % of control | 99 % of control | 84.7 % of control | 224 % of control
